{"source": "patent US20230374526A1", "about": "“FORSKOLIN-INDUCIBLE PROMOTERS AND HYPOXIA-INDUCIBLE PROMOTERS” (ASKLEPIOS BIOPHARMACEUTICAL, INC., priority 2020, published 2023)", "key": {"[1]": {"test_system": "CHO-GSK1SV cell line", "assay": "SEAP expression from hypoxia-inducible promoter in stably integrated cell line, normoxia vs 24 h hypoxia", "assay_type": "cell-based, chinese hamster", "settings": "normalised to cell number", "procedure": "Cell suspensions of 6×10^5 cells per mL are incubated on an orbital shaker set at 8% CO2, 20% O2, 37° C., 85% relative humidity and 140 rpm overnight. 2.86×10^7 cells were centrifuged at 200 g for 3 minutes. Media is then aspirated and cell pellet resuspended in 2 mL fresh CD-CHO media to obtain a concentration of 1.43×10^7 cells per mL. 700 μL of cell suspension was added to each of two electroporation cuvettes each containing […] of linearised DNA in 100 μL of sterile TE buffer (Thermofisher, 12090015). Each cuvette was electroporated, delivering a single pulse of 300V, […] with resistance to infinity. Immediately after delivery of pulse electroplated cells were transferred to Erlenmeyer 125 mL flask containing 20 mL of CD-CHO media pre-warmed to 37° C. […] Cells are transferred to fresh CD-CHO media 24 hours after transfection and cell cultures monitored and given fresh CD-CHO media every 2-4 days. […]\nStably transfected CHO-GS cells were seeded at 500,000 cells/ml and allowed to grow for 24 hrs, at this point the cells were counted and placed under hypoxic conditions as previously described. After 24 hrs, the cell numbers and the expression of SEAP was measured.\nSEAP Reporter Gene Assay, chemiluminescent (Roche, CAT #11 779 842 001) was used to measured SEAP activity as per manufacturers protocol. […] The signal is then read at 477 nm and compared to a calibration curve. […]"}, "[2]": {"test_system": "HEK293-T cells", "assay": "Luciferase expression from hypoxia-inducible promoter, normoxia vs 24 h hypoxia", "assay_type": "cell-based, human", "procedure": "HEK293-T are seeded at a density of 20%. Once they reached a confluence between 60 and 80%, the media is changed with DMEM (#21885-025—Thermo Scientific) supplemented with 10% FBS (Gibco, 26140). After 3 hours, the cells were transfected by a transfection mix. The transfection mix is prepared by adding DNA (2 μg per 6 well plate) and PEI 25 kDA (#23966-1—Polyscience) in a ratio of 1:3 in sterile DPBS (#14190169—ThermoFisher Scientific). After mixing, the transfection mix is incubated at room temperature for 30 minutes and then added directly to the cells. After 16 to 18 h post transfection, the media is changed to DMEM+2% FBS. […]\nAfter transfection the cells were incubated for 24 hrs in normoxic conditions (20% oxygen). Induction of the promoters was assessed by using luciferase activity after 24 hrs in normoxia or hypoxia (5% oxygen, 10% carbon dioxide and 85% nitrogen). […]\nLuciferase activity was measured using LARII (Dual Luciferase Reporter 1000 assay system, Promega, E1980).\nMedia was removed from the cells at the respective time point (0, 3, 5, 24 hrs after induction). […] 10 μl of supernatant was pipetted into white 96-well plate and luminescence measured by addition of 50 μl of LARII substrate.\nβ-galactosidase activity was measured as per manufacturer's instructions (Mammalian βGalactosidase Assay Kit, 75707/75710, Thermo Scientific) using 25 μl of lysate. […]"}, "[3]": {"test_system": "CHO-GS cells", "assay": "Luciferase expression from hypoxia-inducible promoter, transient transfection, normoxia vs 24 h hypoxia", "assay_type": "cell-based, chinese hamster", "settings": "CHO_GS suspension cell line", "procedure": "40 ml of cells were grown in a 250 ml vented Erlenmeyer flask (Sigma-Aldrich CLS431144) at 37° C., 20% O2, 8% CO2 with agitation at 100 rpm. Cells were seeded as at 300,000 cells/ml.\nOne day before transfection, the cells were counted using a haemocytometer and split to 500,000 cells/ml.\nOn the day of transfection, the cells are seeded to 1,000,000 cells/ml in 500 μl of appropriate medium (Thermofisher, CD-CHO 10743029) in a 24 well plate. 0.625 μg of DNA per well was then added to 10 μl of OptiMem medium (Thermofisher; 11058021) and incubated for 5 minutes at room temperature.\nConcurrently, 0.625 μl of Freestyle Max reagent (Thermofisher, 16447100) was made up to 10 μl by addition of OptiMem and incubated for 5 minutes at room temperature. After this incubation, both mixes were added to the same tube and incubated at room temperature for 25-30 minutes. The DNA/Max reagent mix (20 μl/well) was then added directly to the cells and the cells incubated at 37 C, 8% CO2 with agitation at 100 rpm. […]\nAfter transfection the cells were incubated for 24 hrs in normoxic conditions (20% oxygen). Induction of the promoters was assessed by using luciferase activity after 24 hrs in normoxia or hypoxia (5% oxygen, 10% carbon dioxide and 85% nitrogen). […] Luciferase activity was measured as described above."}}, "data": [{"molecule": "RTV-015: hypoxia-inducible promoter, SEQ ID NO: 129; 5 HRE1 elements spaced by 40 bp spacers, synthetic minimal promoter MP1 (nucleic acid, Synp-RTV-015, 5 HRE1 elements spaced by 40 bp spacers, synthetic minimal promoter MP1) DNA: ACGTGCGATGATGCGTAGCTAGTAGTGATGATGCGTAGCTAGTAGTACGTGCGATGATGCGTAGCTAGTAGTGATGATGCGTAGCTAGTAGTACGTGCGATGATGCGTAGCTAGTAGTGATGATGCGTAGCTAGTAGTACGTGCGATGATGCGTAGCTAGTAGTGATGATGCGTAGCTAGTAGTACGTGCTTGGTACCATCCGGGCCGGCCGCTTAAGCGACGCCTATAAAAAATAGGTTGCATGCTAGGCCTAGCGCTGCCAGTCCATCTTCGCTAGCCTGTGCTGCGTCAGTCCAGCGCTGCGCTGCGTAACGGCCGCC", "values": [{"measurement": "SEAP activity in normoxia", "setting": "[1]", "value": "almost no SEAP activity"}, {"measurement": "SEAP expression after 24 hours in hypoxia (vs normoxia)", "setting": "[1]", "value": "induced"}, {"measurement": "Luciferase expression after 24 hours in hypoxia (vs normoxia)", "setting": "[2]; 5% oxygen", "value": "induced"}, {"measurement": "Luciferase activity in normoxia", "setting": "[2]; 20% oxygen", "value": "almost no luciferase activity"}, {"measurement": "Luciferase expression after 24 hours in hypoxia (vs normoxia)", "setting": "[3]; 5% oxygen", "value": "induced"}, {"measurement": "Luciferase activity in normoxia", "setting": "[3]; 20% oxygen", "value": "almost no luciferase activity"}]}]}
